Assay: yeast display, Sf9 membrane polyspecificity reagent, FACS + sequencing; frameworks hold sequencing errors
In short: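 In a synthetic yeast display library (Saccharomyces cerevisiae BJ5465), nanobody expression was induced with galactose for 36–48 hours. FACS gates were set low and high (top ~1%) using anti-HA fluorescence for expression and streptavidin fluorescence for binding of the Sf9 membrane reagent. Each polyreactivity label is drawn from the gate of origin.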

## QVQLVESGGGIVQAGGSLRLSCAASGLIFSRNAMGWYRQAPGQERELVAAISTGGSTYYADSVKGRFTISRDNAKNTGYLQMNSLKPEDTAVYYCAAAPGYIYEYWGQGTQVTVSS
  polyreactivity (PSR sort gate): low polyreactivity

## QVQLVESGGGLVQAGGSLRLSCAASGRTFPTYTMGWYRQAPGQERELVAAITRGGSTKYADSVKGRFTISRDNAKNTVYLQMNSLKPEDTAVYYCAAVYRYRHSFAYYRHEMDYWGQGTQVTVSS
  polyreactivity (PSR sort gate): low polyreactivity

## QVQLVESGGGLVQAGGSLRLSCAASGRIFTSYAMGWYRQAPGKERELVATITGSTASTYYADSVKGRFTISRDNAKNTVYLQMNSLKPEDTAVYYCAARSYSTYFRYYYWGQGTQVTVSS
  polyreactivity (PSR sort gate): high polyreactivity

## QVQLVESGGGLVQAGGSLRLSCAASGFIFRYYAMGWYRQAPGKERELVAAITRSGDNTYYADSVKGRFTISRDNAKNTVYLQMNSLKPEDTAVYYCAARDVQYQQALGGDYWGQGTQVTVSS
  polyreactivity (PSR sort gate): low polyreactivity

## QVQLVESGGGLVQAGGSLRLSCAASGRTFPRYTMGRYRQAPRKERELVAASATGGSTNYADSVKGRFTISRDNAKNTVYLHMNSLKPEDTAVYYCAARPYSNRYVLGVYYWGKGTQVTVSS
  polyreactivity (PSR sort gate): high polyreactivity

## QVQLVESGGGLVQAGGSLRLSSAASGFIFGGYSMGWYRQAPGKERELVAAISRSGGSTYYADSVKGRFTISRDNPKNTVYLQMNSLKPEDTAVYYCNAVPRRQGFNYWGHGTQVTVSS
  polyreactivity (PSR sort gate): high polyreactivity

## QVQLVESGGGLVQAGGSLRLSCAASGRIFYVYAMGWYRQAPRKERELVAAITSGGSTYYADSVKGRFTISRDNAKNTVYLQMNSLKPEDTAVYYCAAYNRGRFRPYRFEYWGQGTQVTVSS
  polyreactivity (PSR sort gate): high polyreactivity

## QVQLVESGGGLVQAGGSLRLSCAASGGIILGYAMRWYRQARGKERELVAAISRSGVSTYYADSVKGRFTISRDNAKNTVYLQMNSLKPEDTAVYYCASDYRYASDYWGLGTQVTVSS
  polyreactivity (PSR sort gate): low polyreactivity

## QVQLVESGGGLVQAGGSLRLSCAASGRIFRGYAMGWYRQAPGKERELVAAITTNGGSTYADSVKGRFTISRDNAKNTVYLQMNSLKPEDTAVYYCAARRVGWARGSGNYDYWGQGTQVTVSS
  polyreactivity (PSR sort gate): low polyreactivity

## QVQLVESGGAIVQAGGSLRLSCAASGRIYYPYAMGWYRQAPGKERELVAAISSGVSTNYADSVKGRFTITRDNAKNTVYLQMNSLNPEDTAVYYCARTYFRFSSSYYKAVSHGFWGQGTQVTVSS
  polyreactivity (PSR sort gate): high polyreactivity

## QVQLVESGGGLVQAGGSHRLSCAASGSTFVYYAMGWYRQAPGKERELVADISSSTGSTYYADSVKGRFTISRDNAKNTVYLQMNSLKPEDTAVYYCAAGRLKFWYTYIIYDFYYWGQGTQVTVSS
  polyreactivity (PSR sort gate): low polyreactivity

## QVQLVESGGGLVQAGGSLRLSCAASGRTFYKNAIGWYRQAPGKERELVAAITATYYADSVKGRFTISRDNAKNTVYLQMNSLKPEDTAVYYCNAYLYPKQPLSPPYPTFEGGYCGQGTQVTVSS
  polyreactivity (PSR sort gate): low polyreactivity

## QVQLVESGGGLVQAGGSLRLSCAASGRIFDGYAMGWNRKAPGKERELVPAISGGGNTKYADSEKGRFTISRDNAKNTVYLQMNSLKPEDTAVYYCAARGYYYGYRFDSWGQGTQVTVSS
  polyreactivity (PSR sort gate): high polyreactivity

## QVQLVESGGGLVQAGGSLRLSCAASGLIFGEYDMGWYRQAPGKERELVAAISDRGTSTYYADSVKGRFTISRDNAKNTVYLQMNSLKPEDTAVYYCATDRNYYYSWEYDYWGQGTQVTVSS
  polyreactivity (PSR sort gate): low polyreactivity

## QVQLVESGGGLVQAGGRLRLSCAASGRTFRLYAMGWYRQAPGKERELVAAINYSDGSTYYADSVKGRFTISRDIAKNTVYLQMNSLKPEDSAVSYCAADLQSGYTIPTSIVEYHPFDYWGQGTQVTVSS
  polyreactivity (PSR sort gate): low polyreactivity

## QVQLVESGGGLVQAGGSLPLSCAASGRIFRGYAMGWYRQAPGKERELVAAISRTGGSTYYADSVKGRFTISRDNAKNTVYLQMNSLKPEDTEVYYCNANRFRRYDWGQGTLVTVSS
  polyreactivity (PSR sort gate): high polyreactivity

## QVQLVESGGGLVQAGGSLRLSCVPSARTFYVYAMGWYRQSPGKQSELVAAIDYSGGDTYYADSVKGRFTISRDNAKNTVYLQMNSLKPVDTAVYYCAAEEYIPIYRYDYEYWGQGTQVTVSS
  polyreactivity (PSR sort gate): high polyreactivity

## QVQLVESGGGLVHAGGSLRLSCAASGRIFSYYTMGWYRQAPGKERELVAAITASDGDTYYADSVKGRFTISRDNAMNTVYLQMNSLKPEDTAVYYCAADFWYYHTRMDYWGKGTQVTVSS
  polyreactivity (PSR sort gate): low polyreactivity

## QVHLVESGGGLVQEGGSLRLSCPACGSTIRGNAMGWYRQAPGKERELVADITRNGGRTYYADSVKGRFTISRDNAKNNVYLQMNSLKPEDTAVYYCAKRDAYCVTQRNMDYWGQGTQVTVSS
  polyreactivity (PSR sort gate): high polyreactivity

## QVQLVESGGGLVQAGGSLRLSSAASGSTLVIYAMGWYRQAPGIERQLVAAIDANTGSTYYADSVKGRFTISLDNAKNTDYLQMNSLKPEDTAVYYCNAQVYLPTAYDYWGQGTLVTVSS
  polyreactivity (PSR sort gate): low polyreactivity

## QVQLVESGGGLVQAGGSLRLSCAASGSTFSFYAMGWYRQAPGKERELVADITSGGSTYYADSVKGRFTISRDNAKNTVYLQMNSLKPEDTAVYYCAKADYGGDYYYQSGGLYYYWGQGTQVTVSS
  polyreactivity (PSR sort gate): low polyreactivity

## QVQLVESGRGLVQAGGSLRISCAASGRTFRHNVMGWYRQAAGQERELVAAITWGDASTYYADSVKGRFTISRDNAKNTVYLQMNSLKPEDTAVYYCAASDYRRSYDYWGQGTQVTVSW
  polyreactivity (PSR sort gate): low polyreactivity

## QVQLVESGGGLVQAGGSLRLSCAASGRIFGINAMGWYRQAPGKERALVAAISRSGSRTYYADSVKGRFTISRDNAKNTVYLQMNSLKPEDTAVYYCAAQKRVYDSVRSTDRYDYWGQGTQVTVSS
  polyreactivity (PSR sort gate): high polyreactivity

## QVQLVESGGGLVQAGGSLRLSCAASGCIFYSNAMGWYRQAPGKERELVAAIARSGGSTYYADSVKGRFTISRDNAKNPVYLQMNSLKPEDTAVYYCNAKFRKADYDSWGQGTEVTVSS
  polyreactivity (PSR sort gate): high polyreactivity

## QVQLVESGGGLVQAGGSLRLSCAASGSLFGSYAMGWYRQAPGKEREIVASISNSGGSTYYADSVKGRFTISRDNAKNTVYLQMNSLKPEDTAVYYCAAAVYSYTYRYYYWGQGTQVTVSS
  polyreactivity (PSR sort gate): high polyreactivity

## QVQLVESGGGLVQAGGSLRLSCAASGSTYRGYAMGWYRQAPGKERELVAAISWSGAATYYADSVKGRFTISRDNAKNTVYLQMNSLKPEDTAVYYCAKVARQNWFRYNYDYWGQGTQVTVSS
  polyreactivity (PSR sort gate): high polyreactivity

## QVQLVESGGGLVQAGGSLRLSCAASGRIYGNAMGWYRQAPGKERELVAAISWSGGSTYYADSVKGRFTISRDNAKNTVYLQMNSLKPEDTAVYYCAATYPQGKYTYGRSYDYWGQGTQVTVSS
  polyreactivity (PSR sort gate): high polyreactivity

## QVQLVESGGGLVQAGGSLRLSCAASGITFRSYEMGWYRAAPAKERELVAAISSGGSRTYYADSVKGRYTISRDNAKKTVYLQMNSLKPEDTAVYYCAATDRSDVYKGAYYYWGQGTQVTVSS
  polyreactivity (PSR sort gate): high polyreactivity

## KVQLVESGGGLVQAGGSLRLSCAASGFTFLRYGMGGYRQAPGKERELVASITSGGGTNYADSVKGRFTISRDNAKNTVYLQLNSLKPEDSAVYYCNAVFFYHGTKPAFISHDYWGQGTQVTVSS
  polyreactivity (PSR sort gate): low polyreactivity

## QVQLVESGGGIVQAGGSLRLSCAASGRIFAYNAMGWYRQAPGKDRELVAAISSGGNTYYADSVKGRFTISRDNAKNTVYLQMYRLKPEDTAVYYCNAGVGWHRYYSNYDYWGQGTQVTVSS
  polyreactivity (PSR sort gate): low polyreactivity

## QVQLVESGVGLVQAGGSLRLSCAASGSTFRYNAMVWYRQAPGKERELVAAITGSGDRTFYADSVKGRFTISRDNAKNTVYLQMNSLKPVDTAVYYCAARSRYPFSYGYYYWGQGTQVSVSS
  polyreactivity (PSR sort gate): high polyreactivity

## QVQLVESGGGLVQAGGSLRLSCAASGFIFDRYAMGWYRQAPGKERELVAAITGSGGSTYYADSVKGRFTISRDNAKNTVYLQMNSLKPEDTAVYYCAAESYVYFALFYVSIPYYYWGQGTQVTVSS
  polyreactivity (PSR sort gate): high polyreactivity

## QVQLQESGGGLVQAGGSLRLSCAASGSIFYKDDMGWYRQAPGKEREFVAGIDRGGTTNCAGSVKGRFTISRDNAKNTVYLQMISLKPEDTAVYYCAAYYPDIYPFIYRGQGTQVTVSS
  polyreactivity (PSR sort gate): high polyreactivity

## QVQLVKSGGGLVQAGGSLRLSCAASGFTIYYYAMGWYRQAPGKEMELVASITSGGSTYYADSVKGRFTISRDNAKNTVYLQMNSLKPEDTAVYYCAKTRFHSKEGDYWGQGTQVTVSS
  polyreactivity (PSR sort gate): low polyreactivity

## QVQLVESGGGLVQAGGSLRLSCAASGRIFYPYAMGWSRQAPGKERELVASISGRGTTTYYADSVKGRFTISRDNAKNTVYLQMNSLKPEDTGVYYCNAYPPTQYGYYYWGQGTQVTVSS
  polyreactivity (PSR sort gate): high polyreactivity

## QVQLVESGGGLVQAGGSLRLSCAASGITFSRNAMGWYRQAPGKERELVATITSGGSTNYADSVKGRFTISRDNAKNTVYLQMNSLKPEDTAVYYCNAVWNTLISGRSYDYWGQGTQVTVSS
  polyreactivity (PSR sort gate): low polyreactivity

## QVQLVESGGGVVQAGGSLRLSCAASGFTYVYNAIGWYRQAPGKDMELVATISWRGGSTYADSVKGRFTISRDNAKNTVYLQINSRKPEDTAIYYCNAASRVSQAMDYWGQGTQVTVSS
  polyreactivity (PSR sort gate): high polyreactivity

## QLQLVESGGGLVQAGGSLRLSCAASRRIFSPNAMGWYRQAPGKESELVAAIRWNGGRTYYADSVKGRFTISRDTAKNTVYLQMNSLKPEDTAVYYCAATYFGPDYVRYDDWGQGTQVTVSS
  polyreactivity (PSR sort gate): high polyreactivity

## QVQLVESAGGLVQAGGSLRLSCDASISSINAMGWYRQAPGKEREMVAAIRWSGSSTYYADSVKGRFTISRDNAKNTVYLQMNSLKPEDTAVYYCAARWYARSLTRFNYWGQGTQVTVSS
  polyreactivity (PSR sort gate): high polyreactivity

## QVQLVESGGGIVQAGGSLRLICAASGSIFDVNALGWYSQAPGKERELVAAITWSGGNTYYADSVKGRFTISRDNAKNNFYLQMYSLKPEDTAVYYCNVYVSAGEEDEYWGQVTQVTVSS
  polyreactivity (PSR sort gate): low polyreactivity

## QVQLQESGGGLVRAGGSLRLSCAASGYISTSIAIGWYRQAPGKERELVASFGAGAITNYADSVKGFTISRDNGKKTVYLQMNSLKPVDTALYYCAVYHGDRGYYSYWGQGTQVTVSS
  polyreactivity (PSR sort gate): low polyreactivity

## QVQLVESGGGLDQAGGSLRLTSAASGSTFYRNAMGWYRQAPGKERELVAAITIRGGSTSFADSVKGRFTISRDNAKNTVYLQMNSLKPEDTAVYYCNADPRAEPGDWSYEMDYWGQGTQVTVSS
  polyreactivity (PSR sort gate): low polyreactivity

## QVQLVESGGGLVQAGGSLSLSCAASGFTIYYYAMGWYRQAPGKERELVASITSGGSTYYADSVKGRFTISRDNAKNTVYLQMNSLKPEDTAVYYCAKTRFHSKEGDYWGQGTQVTVSS
  polyreactivity (PSR sort gate): low polyreactivity

— the nanobody polyreactivity screen of Harvey et al. (2022)
